Data set [1] relates to AncSZ. Description: phosphorylation enrichment, bacterial display (enrichment ratio); higher = better substrate or ligand; peptides without Tyr show the background.
Data set [2] addresses EPHB1 (UniProt P54762). Described as above.
For data set [3], the target named is EPHB2 (UniProt P29323). The description is as above.
The target of data set [4] is FGFR1 (UniProt P11362). The description is as above.
For data set [5], the target named is FGFR3 (UniProt P22607). Described as above.
The subject of data set [6] is Fer (mouse). Described as above.
Data set [7] has as its target Fes (UniProt P07332). The description is as above.
For data set [8], the target named is Fyn (UniProt P06241). The data set is described as above.
Data set [9] addresses Hck (UniProt P08631). The description is as above.
Data set [10] has as its target Jak2 (UniProt O60674). Described as above.
In data set [11] the target is MERTK (UniProt Q12866). Described as above.
For data set [12], the system named is c-Abl (mouse). Described as above.
In data set [13] the test system is c-Src. The description is as above.
The target of data set [14] is Grb2 SH2 (UniProt P62993). Description: SH2 binding enrichment of the phosphorylated peptide, bacterial display (enrichment ratio); higher = better substrate or ligand; peptides without Tyr show the background.
For data set [15], the target named is SHP2-C SH2. Described as above.
In data set [16] the target is c-Src SH2. The data set is described as above.
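For SH2 binding enrichment of the phosphorylated peptide, bacterial display in this document: peptide library displayed on the E. coli surface as eCPX fusions, selected cells deep-sequenced, score is each peptide's frequency after selection divided by its frequency in the input.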
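For phosphorylation enrichment, bacterial display in this document: 11-residue human phosphosite peptides and single-mutation variants displayed on the E. coli surface, counted by deep sequencing, each peptide's frequency after selection divided by its frequency in the unselected input library; frequency after pTyr selection over input frequency; kinase dosed for 20-30% of maximal phosphorylation in three min.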

EPHB2, sequence (P29323 whole entry, looked up): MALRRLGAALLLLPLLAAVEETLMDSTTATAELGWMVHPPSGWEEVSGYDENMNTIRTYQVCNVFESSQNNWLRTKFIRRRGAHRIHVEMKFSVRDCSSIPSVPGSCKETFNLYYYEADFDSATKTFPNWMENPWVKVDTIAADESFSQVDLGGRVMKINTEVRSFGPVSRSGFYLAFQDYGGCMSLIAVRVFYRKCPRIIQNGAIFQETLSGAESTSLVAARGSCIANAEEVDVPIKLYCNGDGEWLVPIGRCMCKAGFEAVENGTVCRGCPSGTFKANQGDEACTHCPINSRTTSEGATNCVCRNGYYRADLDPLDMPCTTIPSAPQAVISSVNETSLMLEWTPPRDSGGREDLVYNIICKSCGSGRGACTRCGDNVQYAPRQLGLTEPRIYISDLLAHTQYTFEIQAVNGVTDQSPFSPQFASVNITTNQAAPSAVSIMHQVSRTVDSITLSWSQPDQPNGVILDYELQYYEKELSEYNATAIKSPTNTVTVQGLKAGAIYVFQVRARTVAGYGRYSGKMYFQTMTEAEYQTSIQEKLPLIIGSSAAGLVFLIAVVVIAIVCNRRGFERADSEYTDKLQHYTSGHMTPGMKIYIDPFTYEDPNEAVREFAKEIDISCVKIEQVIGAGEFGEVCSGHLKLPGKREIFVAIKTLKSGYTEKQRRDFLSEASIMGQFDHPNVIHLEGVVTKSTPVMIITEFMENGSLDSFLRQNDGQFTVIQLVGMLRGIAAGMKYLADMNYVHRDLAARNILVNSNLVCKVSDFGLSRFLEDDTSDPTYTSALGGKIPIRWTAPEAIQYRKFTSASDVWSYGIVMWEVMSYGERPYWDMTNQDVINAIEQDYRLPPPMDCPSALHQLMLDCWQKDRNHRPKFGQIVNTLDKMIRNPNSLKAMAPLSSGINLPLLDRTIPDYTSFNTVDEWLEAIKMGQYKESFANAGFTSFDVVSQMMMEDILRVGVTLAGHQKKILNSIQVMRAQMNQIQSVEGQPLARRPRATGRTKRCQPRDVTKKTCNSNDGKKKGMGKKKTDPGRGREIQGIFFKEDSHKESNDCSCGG
Hck, sequence (P08631 whole entry, looked up): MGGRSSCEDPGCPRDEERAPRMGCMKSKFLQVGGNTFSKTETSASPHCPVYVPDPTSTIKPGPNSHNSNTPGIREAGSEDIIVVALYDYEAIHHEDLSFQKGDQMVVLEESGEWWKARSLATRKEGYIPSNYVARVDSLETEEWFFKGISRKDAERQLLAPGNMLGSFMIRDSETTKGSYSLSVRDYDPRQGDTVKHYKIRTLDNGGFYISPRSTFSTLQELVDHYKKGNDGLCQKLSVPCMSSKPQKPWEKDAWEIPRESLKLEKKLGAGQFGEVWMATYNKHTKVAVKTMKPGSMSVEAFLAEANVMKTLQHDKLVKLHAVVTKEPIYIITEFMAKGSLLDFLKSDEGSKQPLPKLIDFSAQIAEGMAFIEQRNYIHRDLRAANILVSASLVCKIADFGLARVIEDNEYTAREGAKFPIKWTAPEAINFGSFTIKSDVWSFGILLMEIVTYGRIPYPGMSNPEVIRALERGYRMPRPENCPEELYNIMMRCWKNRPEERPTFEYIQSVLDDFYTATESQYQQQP
Fyn, sequence (P06241 whole entry, looked up): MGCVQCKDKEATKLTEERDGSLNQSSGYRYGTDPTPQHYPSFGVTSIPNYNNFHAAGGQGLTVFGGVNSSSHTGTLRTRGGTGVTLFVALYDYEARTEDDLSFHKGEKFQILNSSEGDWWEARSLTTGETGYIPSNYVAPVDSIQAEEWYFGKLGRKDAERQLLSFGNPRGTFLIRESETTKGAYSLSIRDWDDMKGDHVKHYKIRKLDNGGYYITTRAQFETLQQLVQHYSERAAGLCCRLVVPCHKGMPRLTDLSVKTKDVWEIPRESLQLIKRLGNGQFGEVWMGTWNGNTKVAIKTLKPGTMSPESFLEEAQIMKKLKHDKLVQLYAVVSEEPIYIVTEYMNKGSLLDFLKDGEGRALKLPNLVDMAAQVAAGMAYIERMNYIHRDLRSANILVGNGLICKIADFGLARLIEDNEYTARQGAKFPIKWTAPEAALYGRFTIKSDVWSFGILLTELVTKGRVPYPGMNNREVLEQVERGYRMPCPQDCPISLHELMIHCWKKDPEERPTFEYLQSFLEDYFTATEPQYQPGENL
FGFR3, sequence (P22607 whole entry, looked up): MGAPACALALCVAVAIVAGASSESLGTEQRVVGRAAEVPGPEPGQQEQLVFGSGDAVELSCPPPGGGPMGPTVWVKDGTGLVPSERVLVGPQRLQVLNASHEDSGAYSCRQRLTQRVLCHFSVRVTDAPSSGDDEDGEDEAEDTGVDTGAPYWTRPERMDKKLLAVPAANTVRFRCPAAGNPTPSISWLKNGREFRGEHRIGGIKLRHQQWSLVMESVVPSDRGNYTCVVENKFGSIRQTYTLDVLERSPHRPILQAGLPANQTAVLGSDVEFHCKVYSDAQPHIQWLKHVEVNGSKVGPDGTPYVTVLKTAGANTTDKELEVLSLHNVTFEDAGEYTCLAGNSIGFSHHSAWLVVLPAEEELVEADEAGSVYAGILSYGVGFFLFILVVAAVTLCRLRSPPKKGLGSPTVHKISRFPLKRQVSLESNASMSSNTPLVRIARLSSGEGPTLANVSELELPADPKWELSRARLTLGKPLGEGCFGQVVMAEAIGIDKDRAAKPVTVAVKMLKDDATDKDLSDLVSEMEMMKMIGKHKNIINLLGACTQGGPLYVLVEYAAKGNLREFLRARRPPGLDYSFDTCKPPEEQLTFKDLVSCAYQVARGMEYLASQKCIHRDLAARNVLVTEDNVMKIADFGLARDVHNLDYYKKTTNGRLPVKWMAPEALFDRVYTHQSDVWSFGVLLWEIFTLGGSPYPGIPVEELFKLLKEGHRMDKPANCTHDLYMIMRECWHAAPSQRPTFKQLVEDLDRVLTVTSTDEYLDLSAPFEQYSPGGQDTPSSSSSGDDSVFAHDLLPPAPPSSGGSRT
FGFR1, sequence (P11362 whole entry, looked up): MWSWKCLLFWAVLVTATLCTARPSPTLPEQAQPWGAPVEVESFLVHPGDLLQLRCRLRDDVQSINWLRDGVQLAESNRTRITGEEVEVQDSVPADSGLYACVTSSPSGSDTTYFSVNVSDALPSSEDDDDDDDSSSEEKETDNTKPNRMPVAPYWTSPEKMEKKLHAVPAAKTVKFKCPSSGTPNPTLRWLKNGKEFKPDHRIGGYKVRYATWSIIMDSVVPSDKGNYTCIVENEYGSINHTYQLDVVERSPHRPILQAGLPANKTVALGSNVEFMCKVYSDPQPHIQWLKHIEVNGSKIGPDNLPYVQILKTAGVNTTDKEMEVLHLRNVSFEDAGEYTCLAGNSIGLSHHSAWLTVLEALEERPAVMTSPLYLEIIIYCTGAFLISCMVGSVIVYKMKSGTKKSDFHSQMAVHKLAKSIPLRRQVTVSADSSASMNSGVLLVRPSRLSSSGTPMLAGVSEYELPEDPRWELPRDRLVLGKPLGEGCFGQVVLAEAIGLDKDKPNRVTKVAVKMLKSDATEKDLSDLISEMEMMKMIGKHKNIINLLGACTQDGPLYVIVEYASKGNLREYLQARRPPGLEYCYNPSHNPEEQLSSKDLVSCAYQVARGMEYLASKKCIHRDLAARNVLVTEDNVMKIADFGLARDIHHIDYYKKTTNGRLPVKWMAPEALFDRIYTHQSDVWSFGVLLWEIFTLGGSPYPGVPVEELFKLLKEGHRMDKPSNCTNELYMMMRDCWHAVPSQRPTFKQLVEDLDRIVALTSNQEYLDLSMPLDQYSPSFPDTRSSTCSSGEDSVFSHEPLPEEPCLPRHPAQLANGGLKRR
Grb2 SH2, sequence (P62993 whole entry, looked up): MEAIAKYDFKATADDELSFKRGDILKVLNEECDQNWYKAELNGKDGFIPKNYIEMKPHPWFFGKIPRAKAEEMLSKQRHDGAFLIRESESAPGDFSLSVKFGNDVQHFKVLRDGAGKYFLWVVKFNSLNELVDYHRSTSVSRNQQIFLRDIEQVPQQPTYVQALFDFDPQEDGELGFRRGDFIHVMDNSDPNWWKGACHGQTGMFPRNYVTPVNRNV
Fes, sequence (P07332 whole entry, looked up): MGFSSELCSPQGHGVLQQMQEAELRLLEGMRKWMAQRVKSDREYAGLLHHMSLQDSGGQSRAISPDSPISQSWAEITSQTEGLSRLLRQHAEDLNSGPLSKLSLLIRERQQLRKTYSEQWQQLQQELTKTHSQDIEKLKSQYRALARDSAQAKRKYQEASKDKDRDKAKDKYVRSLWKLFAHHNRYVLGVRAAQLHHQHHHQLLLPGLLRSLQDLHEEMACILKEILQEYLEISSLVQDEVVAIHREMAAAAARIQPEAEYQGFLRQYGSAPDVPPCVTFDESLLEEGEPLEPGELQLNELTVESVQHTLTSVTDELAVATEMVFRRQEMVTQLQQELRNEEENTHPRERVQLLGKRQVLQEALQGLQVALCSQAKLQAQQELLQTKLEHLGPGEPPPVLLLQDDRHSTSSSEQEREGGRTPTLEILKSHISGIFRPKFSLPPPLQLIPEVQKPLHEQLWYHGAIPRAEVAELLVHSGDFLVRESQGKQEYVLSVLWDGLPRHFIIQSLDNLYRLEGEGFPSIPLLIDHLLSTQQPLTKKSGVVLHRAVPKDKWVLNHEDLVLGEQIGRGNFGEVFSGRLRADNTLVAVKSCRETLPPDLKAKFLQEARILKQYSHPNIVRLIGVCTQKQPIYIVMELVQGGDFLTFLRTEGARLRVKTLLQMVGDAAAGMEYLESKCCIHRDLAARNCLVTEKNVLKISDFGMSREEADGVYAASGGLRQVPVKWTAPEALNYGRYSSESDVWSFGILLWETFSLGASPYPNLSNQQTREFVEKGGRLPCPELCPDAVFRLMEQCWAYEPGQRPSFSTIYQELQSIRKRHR

As for STASGYSDVTD [DTX2_Y425], the phosphorylation enrichment in data set [1] was 0.721; in data set [2], 0.448; in data set [3], 0.464; in data set [4] it was 0.497; in data set [5] it was 0.487; in data set [6], 0.398. Also, the phosphorylation enrichment is 0.84 in data set [7]; 0.447 in [8]; 0.449 in data set [9]; 0.661 in [10]; 0.355 in data set [11]; 0.61 in data set [12]. Besides, the phosphorylation enrichment in data set [13] was 0.358. Further, the SH2 binding enrichment in data set [14] turned out to be 0.851; in data set [15], 1.11; in data set [16], 3.68.

Take STEAIYRRYSK [SH3PXD2B_Y42]: the phosphorylation enrichment came to 0.511 in [1]; 0.302 in data set [2]; 0.441 in data set [3]; 0.41 in data set [4]; 0.425 in [5]; 0.341 in data set [6]. The phosphorylation enrichment in data set [7] worked out at 0.418; in data set [8], 0.456; in [9], 0.425; in data set [10] it was 0.534; in data set [11] it was 0.466; in data set [12], 0.709. Besides, the phosphorylation enrichment in data set [13] stood at 0.52. Further, the SH2 binding enrichment in data set [14] was 0.836; in data set [15], 0.664; in [16], 0.557.

In the case of STEAIYWRFSK [SH3PXD2B_Y42_R43W_YF], the phosphorylation enrichment in data set [1] worked out at 1.2; in data set [2], 1.05; in data set [3] it was 0.74; in [4], 0.913; in [5] it was 1.13; in data set [6] it was 0.564. Also, the phosphorylation enrichment in [7] stood at 1.51; in data set [8] it was 3.69; in [9], 2.51; in data set [10] it was 1.29; in data set [11], 1.32; in [12] it was 7.78. Also, in data set [13], the phosphorylation enrichment was determined as 2.98. Further, the SH2 binding enrichment in data set [14] turned out to be 0.606; in data set [15], 0.495; in data set [16], 0.434.

Turning to STEVIYQPRRK [STK11_Y36], the phosphorylation enrichment in data set [1] is 0.603; in [2], 0.437; in [3], 0.527; in data set [4] it was 0.424; in data set [5], 0.539; in data set [6], 0.473. The phosphorylation enrichment in data set [7] was 0.523; in [8] it was 0.52; in data set [9], 0.683; in data set [10], 0.612; in data set [11], 0.643; in data set [12], 1. In data set [13], the phosphorylation enrichment came to 0.704. The figures for the SH2 binding enrichment in data set [14], in [15] and in data set [16] were 0.585, 0.467 and 0.376, respectively.

As for STLEVYRCHPP [IL21R_Y317_S318R], the phosphorylation enrichment in data set [1] was 1.11; in data set [2], 0.758; in [3], 0.675; in data set [4] it was 0.55; in [5], 0.901; in data set [6] it was 0.49. For the same sequence, the phosphorylation enrichment in [7] turned out to be 1.25; in [8], 0.542; in data set [9] it was 0.552; in [10], 1.03; in data set [11], 0.364; in data set [12] it was 0.78. In addition, in data set [13], the phosphorylation enrichment was determined as 0.497. For the same sequence, the figures for the SH2 binding enrichment in data set [14], in [15] and in [16] were 0.715, 0.455 and 0.42, respectively.

For the sequence STTIHYNYMCN [TP53_Y234_C229S], the phosphorylation enrichment in [1] was 1; in data set [2], 0.603; in data set [3] it was 0.677; in [4], 0.629; in [5], 0.809; in data set [6] it was 0.592. Also, the phosphorylation enrichment came to 1.14 in data set [7]; 0.517 in data set [8]; 0.543 in data set [9]; 0.792 in data set [10]; 0.53 in data set [11]; 0.71 in data set [12]. Besides, the phosphorylation enrichment in [13] is 0.458. The SH2 binding enrichment stood at 0.812 in data set [14], 0.845 in data set [15] and 1.88 in data set [16].

Turning to SVCPDYDLCSV [SQSTM1_Y148], the phosphorylation enrichment in data set [1] worked out at 1.65; in data set [2], 0.788; in data set [3], 0.959; in [4], 0.661; in [5] it was 0.901; in data set [6], 1.89. The phosphorylation enrichment in data set [7] amounted to 1.3; in data set [8], 0.689; in data set [9] it was 0.678; in data set [10], 1.3; in data set [11], 0.524; in data set [12] it was 0.98. For the same sequence, in data set [13], the phosphorylation enrichment was 0.87. Moreover, the figures for the SH2 binding enrichment in data set [14], in data set [15] and in data set [16] were 1.29, 1.07 and 1.13, respectively.

On to SVQVEYMKTIL [GLYATL2_Y127_D126E], for which the phosphorylation enrichment in [1] worked out at 0.643; in [2], 0.41; in data set [3], 0.476; in data set [4], 0.437; in data set [5] it was 0.578; in [6] it was 0.425. Also, the phosphorylation enrichment worked out at 0.893 in [7]; 0.413 in data set [8]; 0.469 in [9]; 0.612 in [10]; 0.429 in data set [11]; 0.484 in data set [12]. Moreover, in data set [13], the phosphorylation enrichment stood at 0.376. The SH2 binding enrichment amounted to 0.712 in data set [14], 0.777 in [15] and 0.72 in data set [16].

Values taken from the supplement of paper PMC10065799, “High-throughput profiling of sequence recognition by tyrosine kinases and SH2 domains using bacterial peptide display” (eLife, 2023).
